Key:
[1] = molecular target: FXR1 215-360 (KH1-KH2) (UniProt P51114 215-360); test: ITC; ITC: 50 mM sodium phosphate pH 7.5, 150 mM NaCl, 0.5 mM TCEP, 25 °C; conditions: protein: recombinant; tags: His or GST (not specified which)
[2] = molecular target: SARS-CoV-2 N protein (NCAP_SARS2) (SARS-CoV-2, UniProt P0DTC9 1-419); test: ITC; conditions: protein: recombinant; chain copies: 2

B1: NF1 RNA (ssRNA)
RNA: GGAUCAUUUUGUUGGACUCAAUUUCAACUCUAACUUUAACUUUGCAUUGGUUGGACACCU
B1 was tested, and the binding result [1] was “no binding” and the Kd [2] was 380 ± 40 nM.

Source: article PMC10897489
